These results are taken from patent US20170035908A1.

Assay [1] deals with PAM4 antigen (pancreatic cancer mucin, CaPan1 human pancreatic tumor). In words: ELISA on target mucin antigen (FIG. 9).
Assay [2] shares this target. The experiment in a line: radioiodinated TF10 mixed with mucin (not shown).
Assay [3] has as its target IMP-288 di-HSG hapten-peptide, DOTA-D-Tyr-D-Lys(HSG)-D-Glu-D-Lys(HSG)-NH2. The experiment in a line: 111In-IMP-288 mixed with TF10, elution analysis (not shown).
Assay [4] deals with PAM4 antigen (pancreatic cancer mucin, CaPan1 human pancreatic tumor). The experiment in a line: TF10/111In-IMP-288 complex mixed with excess mucin, elution analysis.

pEC50: −log10 of the molar value.

Take PAM4-F(ab′)2: in assay [1], the pEC50 was 8.74.

Regarding “TF10 bispecific ([hPAM4]2 x h679) DNL construct (bispecific antibody)”, the pEC50 in assay [1] is 8.85. In assay [2], the immunoreactive fraction was found to be 87%. The percent of peptide bound in assay [3] came out at 90%. In assay [4], the percent of TF10-bound IMP-288 eluting at higher molecular weight with excess mucin came to 92%.
